# According to patent publication US20230241168A1 (ALPINE IMMUNE SCIENCES, published 2023):
# Substitutions are numbered along the chain they refer to. Names may count otherwise. Where two headings read alike, the source gives them in different places. No end group written: not given here.
# B1: CTLA-4 186 GSG4S Fc (G4S)4 TACI 541 (Fc fusion)
# chain: KAMHVAQPAVVLASSRGIASFVCEYASPWKATEVRVTVLRQADSQVTEVCAATYMMGNELTFLDDSICTGTSSGNQVNLTIQGLRAMDTGLYICKVEQMYPPPYLLGIGNGTQIYVIDPEPCPDSDGSGGGGSEPKSSDKTHTCPPCPAPEAEGAPSVFLFPPKPKDTLMISRTPEVTCVVVDVSHEDPEVKFNWYVDGVEVHNAKTKPREEQYNSTYRVVSVLTVLHQDWLNGKEYKCKVSNKALPAPIEKTISKAKGQPREPQVYTLPPSRDELTKNQVSLTCLVKGFYPSDIAVEWESNGQPENNYKTTPPVLDSDGSFFLYSKLTVDKSRWQQGNVFSCSVMHEALHNHYTQKSLSLSPGGGGGSGGGGSGGGGSGGGGSSLSCRKEQGEYYDHLLRDCISCASICGQHPKQCADFCENKLRS
# B2: Belimumab (antibody, V domains shown)
# VH: QVQLQQSGAEVKKPGSSVRVSCKASGGTFNNNAINWVRQAPGQGLEWMGGIIPMFGTAKYSQNFQGRVAITADESTGTASMELSSLRSEDTAVYYCARSRDLLLFPHHALSPWGRGTMVTVSS
# VL: SSELTQDPAVSVALGQTVRVTCQGDSLRSYYASWYQQKPGQAPVLVIYGKNNRPSGIPDRFSGSSSGNTASLTITGAQAEDEADYYCSSRDSSGNHWVFGGGTELTVLG
# B3: TACI WT Fc (Fc fusion, not shown: a dimerising Fc or GST)
# chain: VAMRSCPEEQYWDPLLGTCMSCKTICNHQSQRTCAAFCRSLSCRKEQGKFYDHLLRDCISCASICGQHPKQCAYFCENKLRS
# B4: variant CTLA-4 ECD-Fc G29W/L98Q/Y105L (Fc fusion)
# chain: KAMHVAQPAVVLASSRGIASFVCEYASPWKATEVRVTVLRQADSQVTEVCAATYMMGNELTFLDDSICTGTSSGNQVNLTIQGLRAMDTGLYICKVEQMYPPPYLLGIGNGTQIYVIDPEPCPDSDGSGGGGSEPKSSDKTHTCPPCPAPEAEGAPSVFLFPPKPKDTLMISRTPEVTCVVVDVSHEDPEVKFNWYVDGVEVHNAKTKPREEQYNSTYRVVSVLTVLHQDWLNGKEYKCKVSNKALPAPIEKTISKAKGQPREPQVYTLPPSRDELTKNQVSLTCLVKGFYPSDIAVEWESNGQPENNYKTTPPVLDSDGSFFLYSKLTVDKSRWQQGNVFSCSVMHEALHNHYTQKSLSLSPG
# B5: variant CTLA-4 ECD-Fc M56T/L98Q/Y105L (Fc fusion)
# chain: B4 chain with W29G, M56T
# B6: 528 TACI CRD2-Fc (Fc fusion, not shown: a dimerising Fc or GST)
# chain: SLSCRKEQGKFYDHLLRDCISCASICGQHPKQCAYFCENKLRS
# modifications: not fully specified (C-terminus); cysteine pairing not given here; also: Fc fusion, linker and Fc not given here
# B7: 528 TACI CRD2-Fc (Fc fusion, not shown: a dimerising Fc or GST)
# chain: B6 chain
# modifications: cysteine pairing not given here; also: Fc fusion, linker and Fc not given here
# notes: Fc fusion; also called WT TACI-Fc containing only the CRD2 domain of TACI; TACI 68-110 Fc
# B8: CTLA-4 186-GSG4S-Fc-(G4S)4-BCMA 406 (Fc fusion)
# chain: KAMHVAQPAVVLASSRGIASFVCEYASPWKATEVRVTVLRQADSQVTEVCAATYMMGNELTFLDDSICTGTSSGNQVNLTIQGLRAMDTGLYICKVEQMYPPPYLLGIGNGTQIYVIDPEPCPDSDGSGGGGSEPKSSDKTHTCPPCPAPEAEGAPSVFLFPPKPKDTLMISRTPEVTCVVVDVSHEDPEVKFNWYVDGVEVHNAKTKPREEQYNSTYRVVSVLTVLHQDWLNGKEYKCKVSNKALPAPIEKTISKAKGQPREPQVYTLPPSRDELTKNQVSLTCLVKGFYPSDIAVEWESNGQPENNYKTTPPVLDSDGSFFLYSKLTVDKSRWQQGNVFSCSVMHEALHNHYTQKSLSLSPGGGGGSGGGGSGGGGSGGGGSLQMAGQCSQNEYFDSLLLACIPCQLRCSSNTPPLTCQRYCNASVTNSVKGTNA
# Legend:
# [1] = biological target: recombinant human BAFF (human) (UniProt Q9Y275); assay: cell-based or functional assay; parameters: IC50 APRIL (Δ TACI 30-110-Fc) / IC50 BAFF (Δ TACI 30-110-Fc): unit not given beside the values
# [2] = biological target: recombinant human APRIL (human) (UniProt O75888); assay: cell-based or functional assay; parameters: IC50 APRIL (Δ TACI 30-110-Fc) / IC50 BAFF (Δ TACI 30-110-Fc): unit not given beside the values
# [3] = biological target: recombinant human BAFF (human) (UniProt Q9Y275); assay: cell-based or functional assay; parameters: IC50 APRIL (Δ Parental vTD) / IC50 BAFF (Δ Parental vTD): unit not given beside the values
# [4] = biological target: recombinant human APRIL (human) (UniProt O75888); assay: cell-based or functional assay; parameters: IC50 APRIL (Δ Parental vTD) / IC50 BAFF (Δ Parental vTD): unit not given beside the values
# [5] = biological target: T1, recombinant human BAFF (human, UniProt Q9Y275 134-285); assay: cell-based or functional assay
# [6] = biological target: T2, recombinant human APRIL (human, UniProt O75888 105-250, limits assumed); assay: cell-based or functional assay
# T2 sequence (looked up): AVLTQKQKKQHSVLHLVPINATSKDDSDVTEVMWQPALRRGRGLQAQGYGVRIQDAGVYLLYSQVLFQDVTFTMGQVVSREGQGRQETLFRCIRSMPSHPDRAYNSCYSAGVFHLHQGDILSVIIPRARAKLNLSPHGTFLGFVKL
# [7] = biological target: T3, human CD86 (human, UniProt P42081 24-329); assay: cell-based or functional assay
# T3 sequence (looked up): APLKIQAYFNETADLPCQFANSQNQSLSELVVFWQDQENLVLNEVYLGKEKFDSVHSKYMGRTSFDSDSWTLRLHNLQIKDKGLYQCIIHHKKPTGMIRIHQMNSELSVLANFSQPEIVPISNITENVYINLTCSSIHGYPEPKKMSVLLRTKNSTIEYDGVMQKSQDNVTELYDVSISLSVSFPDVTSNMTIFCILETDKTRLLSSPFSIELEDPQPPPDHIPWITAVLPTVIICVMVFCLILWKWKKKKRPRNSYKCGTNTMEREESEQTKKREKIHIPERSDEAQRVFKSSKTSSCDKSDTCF
# [8] = biological target: T4, human CD80 (human, UniProt P33681 35-288); assay: cell-based or functional assay
# T4 sequence (looked up): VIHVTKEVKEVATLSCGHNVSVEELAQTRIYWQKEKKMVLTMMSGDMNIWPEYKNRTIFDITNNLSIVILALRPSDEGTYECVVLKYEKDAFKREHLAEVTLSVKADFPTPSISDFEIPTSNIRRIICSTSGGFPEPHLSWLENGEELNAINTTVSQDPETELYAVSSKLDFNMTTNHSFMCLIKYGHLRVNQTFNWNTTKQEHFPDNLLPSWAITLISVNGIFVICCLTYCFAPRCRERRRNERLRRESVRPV
# [9] = biological target: T1, recombinant human BAFF; assay: cell-based or functional assay; remark: listed apart in the source
# [10] = biological target: T2, recombinant human APRIL; assay: cell-based or functional assay; remark: listed apart in the source
# [11] = biological target: T5, human ICOSL (human, UniProt O75144 19-302); assay: flow cytometry, cells expressing human ICOSL
# T5 construct: whole, on cells
# T5 sequence (looked up): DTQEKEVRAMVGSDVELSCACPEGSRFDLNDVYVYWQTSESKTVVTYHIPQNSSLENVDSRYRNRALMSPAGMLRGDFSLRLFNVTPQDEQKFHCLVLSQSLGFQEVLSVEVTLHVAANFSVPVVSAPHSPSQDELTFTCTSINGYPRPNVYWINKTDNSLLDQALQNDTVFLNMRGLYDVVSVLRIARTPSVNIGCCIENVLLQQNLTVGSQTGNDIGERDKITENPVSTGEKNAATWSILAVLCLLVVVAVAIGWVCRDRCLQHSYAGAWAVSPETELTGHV
# [12] = biological target: T6, recombinant human BAFF (human, UniProt Q9Y275 134-285); assay: told in the description with reference to Example 8 (Jurkat/NF-κB/TACI reporter blockade)
# T6 construct: also called human BAFF (BioLegend)
# [13] = biological target: T7, recombinant human APRIL (human, UniProt O75888 105-250, limits assumed); assay: as above
# T7 construct: also called human APRIL (Tonbo Biosciences)
# T7 sequence (looked up): T2 sequence (looked up)
Molecule,IC50 (nM) BAFF [5] [nM],IC50 BAFF (Δ TACI 30-110-Fc) [5] [ratio],IC50 (nM) APRIL [6] [nM],IC50 APRIL (Δ TACI 30-110-Fc) [6] [ratio],CD86 IC50 [7] [nM],CD86 IC50 (Δ Parental CTLA-4) [7] [ratio],CD80 IC50 [8] [nM],CD80 IC50 (Δ Parental CTLA-4) [8] [ratio],other results
BCMA WT-Fc (Fc fusion),,,,,,,,,IC50 (nM) BAFF [1]: 823 nM; IC50 BAFF (Δ TACI 30-110-Fc) [1]: 0.14; IC50 (nM) APRIL [2]: 183 nM; IC50 APRIL (Δ TACI 30-110-Fc) [2]: 0.05; IC50 (nM) BAFF [3]: 0.995 nM; IC50 BAFF (Δ Parental vTD) [3]: 1; IC50 (nM) APRIL [4]: 1.03 nM; IC50 APRIL (Δ Parental vTD) [4]: 1
B1,1260,0.22,272,0.07,10.2,1.2,56.9,1.7,IC50 (nM) BAFF [9]: 0.103 nM; IC50 (nM) APRIL [10]: 1.56 nM
B2,2500,0.43,215000,55.8,,,,,
B3,,,,,,,,,IC50 (nM) BAFF [3]: 2.58 nM; IC50 BAFF (Δ Parental vTD) [3]: 1; IC50 (nM) APRIL [4]: 9.17 nM; IC50 APRIL (Δ Parental vTD) [4]: 1
B4,,,,,8.2,1,33.6,1,MFI [11]: 570 MFI
B5,,,,,,,,,MFI [11]: 700 MFI
B6,,,,,,,,,IC50 (nM) BAFF [1]: 1330 nM; IC50 BAFF (Δ TACI 30-110-Fc) [1]: 0.23; IC50 (nM) APRIL [2]: 369 nM; IC50 APRIL (Δ TACI 30-110-Fc) [2]: 0.1
B7,,,,,,,,,binding result [12]: binds; binding result [13]: binds
B8,2630,0.46,269,0.07,8.1,1.3,25.2,0.8,IC50 (nM) BAFF [9]: 0.49 nM; IC50 (nM) APRIL [10]: 0.997 nM
